Data published in FireProtDB (doi:10.1016/0168-1656(93)90129-b).

B1: Ribonuclease HI, P0A7Y4 (parent)
chain: MLKQVEIFTDGSCLGNPGPGGYGAILRYRGREKTFSAGYTRTTNNRMELMAAIVALEALKEHCEVILSTDSQYVRQGITQWIHNWKKRGWKTADKKPVKNVDLWQRLDAALGQHQIKWEWVKGHAGHPENERCDELARAAAMNPTLEDTGYQVEV

Variants of: B1
Details: Escherichia coli (strain K12), CD, reversible: yes, structure 2RN2, whole UniProt chain shown; for Tm / change of melting temperature, mutant - wild type (higher = more stable): Thermal; for ddG of mutation (higher = less stable) / denaturant midpoint (higher = more stable) / unfolding free energy: 25 °C, GdnHCl

| Variant | Tm (pH 3, glycine-HCl 10 mM) | change of melting temperature, mutant - wild type (higher = more stable) (pH 3, glycine-HCl 10 mM) | ddG of mutation (higher = less stable) (pH 5.5, Sodium acetate 20 mM) | denaturant midpoint (higher = more stable) (pH 5.5, Sodium acetate 20 mM) | unfolding free energy (pH 5.5, Sodium acetate 20 mM) | Tm (pH 5.5, Sodium acetate 20 mM) | change of melting temperature, mutant - wild type (higher = more stable) (pH 5.5, Sodium acetate 20 mM) | Tm (pH 7.8, Sodium phosphate 20 mM) | change of melting temperature, mutant - wild type (higher = more stable) (pH 7.8, Sodium phosphate 20 mM) | ddG of mutation (higher = less stable) (pH 8.2, Tris-HCl 20 mM) | denaturant midpoint (higher = more stable) (pH 8.2, Tris-HCl 20 mM) | unfolding free energy (pH 8.2, Tris-HCl 20 mM) |
| --- | --- | --- | --- | --- | --- | --- | --- | --- | --- | --- | --- | --- |
| MLKQVEIFTDGSCLGNPGPGGYGAILRYRGREKTFSAGYTRTTNNRMELMAAIVALEALKEHCEVILSTDSQYVRQGITQWIHNWKKRGWKTADKKPVKNVDLWQRLDAALGQHQIKWEWVKGAAGHPENERCDELARAAAMNPTLEDTGYQVEV [H124A] | 51.1 °C | 1.7 °C | -0.17 kcal/mol | 1.82 M | 9.38 kcal/mol | 52.7 °C | 0 °C | 50.3 °C | 0.1 °C | -0.05 kcal/mol | 1.66 M | 8.54 kcal/mol |
| MLKQVEIFTDGSCLGNPGPGGYGAILRYRGREKTFSAGYTRTTNNRMELMAAIVALEALKEHCEVILSTDSQYVRQGITQWIANWKKRGWKTADKKPVKNVDLWQRLDAALGQHQIKWEWVKGHAGHPENERCDELARAAAMNPTLEDTGYQVEV [H83A] | 51.5 °C | 2.1 °C | -0.22 kcal/mol | 1.83 M | 9.43 kcal/mol | 52.8 °C | 0.1 °C | 50 °C | -0.2 °C | 0.09 kcal/mol | 1.63 M | 8.4 kcal/mol |
| MLKQVEIFTDGSCLGNPGPGGYGAILRYRGREKTFSAGYTRTTNNRMELMAAIVALEALKEACEVILSTDSQYVRQGITQWIANWKKRGWKTADKKPVKNVDLWQRLDAALGQHQIKWEWVKGAAGAPENERCDELARAAAMNPTLEDTGYQVEV [H62A H83A H124A H127A] | 54.9 °C | 5.5 °C |  |  |  |  |  | 51.7 °C | 1.5 °C |  |  |  |
| MLKQVEIFTDGSCLGNPGPGGYGAILRYRGREKTFSAGYTRTTNNRMELMAAIVALEALKEHCEVILSTDSQYVRQGITQWIHNWKKRGWKTADKKPVKNVDLWQRLDAALGQHQIKWEWVKGAAGAPENERCDELARAAAMNPTLEDTGYQVEV [H124A H127A] | 53 °C | 3.6 °C |  |  |  | 52.1 °C | -0.6 °C | 50.1 °C | -0.1 °C |  |  |  |
| MLKQVEIFTDGSCLGNPGPGGYGAILRYRGREKTFSAGYTRTTNNRMELMAAIVALEALKEHCEVILSTDSQYVRQGITQWIHNWKKRGWKTADKKPVKNVDLWQRLDAALGQHQIKWEWVKGHAGAPENERCDELARAAAMNPTLEDTGYQVEV [H127A] | 50.3 °C | 0.9 °C | 0.24 kcal/mol | 1.74 M | 8.97 kcal/mol |  |  |  |  | 0.31 kcal/mol | 1.59 M | 8.18 kcal/mol |
| MLKQVEIFTDGSCLGNPGPGGYGAILRYRGREKTFSAGYTRTTNNRMELMAAIVALEALKEACEVILSTDSQYVRQGITQWIHNWKKRGWKTADKKPVKNVDLWQRLDAALGQHQIKWEWVKGHAGHPENERCDELARAAAMNPTLEDTGYQVEV [H62A] | 50.7 °C | 1.3 °C | -0.36 kcal/mol | 1.86 M | 9.57 kcal/mol |  |  | 51.2 °C | 1 °C | -0.58 kcal/mol | 1.76 M | 9.07 kcal/mol |
| MLKQVEIFTDGSCLGNPGPGGYGAILRYRGREKTFSAGYTRTTNNRMELMAAIVALEALKEACEVILSTDSQYVRQGITQWIANWKKRGWKTADKKPVKNVDLWQRLDAALGQHQIKWEWVKGHAGHPENERCDELARAAAMNPTLEDTGYQVEV [H62A H83A] |  |  |  |  |  |  |  | 51.5 °C | 1.3 °C |  |  |  |
| MLKQVEIFTDGSCLGNPGPGGYGAILRYRGREKTFSAGYTRTTNNRMELMAAIVALEALKEHCEVILSTDSQYVRQGITQWIHNWKKRGWKTADKKPVKNVDLWQRLDAALGQAQIKWEWVKGHAGHPENERCDELARAAAMNPTLEDTGYQVEV [H114A] |  |  |  |  |  |  |  | 42.5 °C | -7.7 °C |  |  |  |
